From article PMC10591846 come the findings set out here.

For orientation: IC50 means the concentration at which inhibition is half-maximal. A lower IC50 goes with higher potency.

The target in the test is GST-Pirh2 (construct of Figures S5 and S12 not stated) (human) (UniProt Q96PM5). Put plainly: AlphaScreen or HTRF. (In Alpha technology, singlet oxygen from a donor bead excites a nearby acceptor bead.)
GST-Pirh2 (construct of Figures S5 and S12 not stated) (human), sequence (Q96PM5 whole entry): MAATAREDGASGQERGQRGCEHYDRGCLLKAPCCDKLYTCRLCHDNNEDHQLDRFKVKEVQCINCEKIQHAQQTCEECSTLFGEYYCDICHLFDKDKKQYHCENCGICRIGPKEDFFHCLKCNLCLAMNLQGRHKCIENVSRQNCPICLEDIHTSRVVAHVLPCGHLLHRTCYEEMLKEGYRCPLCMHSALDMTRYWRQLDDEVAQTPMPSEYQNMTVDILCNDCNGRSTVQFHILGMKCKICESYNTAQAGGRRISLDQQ

The substance B. subtilis SsrA tag (peptide) returned an IC50 of 470 nM.
